Results reported in publication PMC3992927 (Cancer discovery, 2014).

How the values were obtained:
[1] = target: T1, myc epitope-tagged RNF31 Q622L (human, UniProt Q96EP0-1 1-1072, Q622L); test: co-IP
T1 sequence (looked up): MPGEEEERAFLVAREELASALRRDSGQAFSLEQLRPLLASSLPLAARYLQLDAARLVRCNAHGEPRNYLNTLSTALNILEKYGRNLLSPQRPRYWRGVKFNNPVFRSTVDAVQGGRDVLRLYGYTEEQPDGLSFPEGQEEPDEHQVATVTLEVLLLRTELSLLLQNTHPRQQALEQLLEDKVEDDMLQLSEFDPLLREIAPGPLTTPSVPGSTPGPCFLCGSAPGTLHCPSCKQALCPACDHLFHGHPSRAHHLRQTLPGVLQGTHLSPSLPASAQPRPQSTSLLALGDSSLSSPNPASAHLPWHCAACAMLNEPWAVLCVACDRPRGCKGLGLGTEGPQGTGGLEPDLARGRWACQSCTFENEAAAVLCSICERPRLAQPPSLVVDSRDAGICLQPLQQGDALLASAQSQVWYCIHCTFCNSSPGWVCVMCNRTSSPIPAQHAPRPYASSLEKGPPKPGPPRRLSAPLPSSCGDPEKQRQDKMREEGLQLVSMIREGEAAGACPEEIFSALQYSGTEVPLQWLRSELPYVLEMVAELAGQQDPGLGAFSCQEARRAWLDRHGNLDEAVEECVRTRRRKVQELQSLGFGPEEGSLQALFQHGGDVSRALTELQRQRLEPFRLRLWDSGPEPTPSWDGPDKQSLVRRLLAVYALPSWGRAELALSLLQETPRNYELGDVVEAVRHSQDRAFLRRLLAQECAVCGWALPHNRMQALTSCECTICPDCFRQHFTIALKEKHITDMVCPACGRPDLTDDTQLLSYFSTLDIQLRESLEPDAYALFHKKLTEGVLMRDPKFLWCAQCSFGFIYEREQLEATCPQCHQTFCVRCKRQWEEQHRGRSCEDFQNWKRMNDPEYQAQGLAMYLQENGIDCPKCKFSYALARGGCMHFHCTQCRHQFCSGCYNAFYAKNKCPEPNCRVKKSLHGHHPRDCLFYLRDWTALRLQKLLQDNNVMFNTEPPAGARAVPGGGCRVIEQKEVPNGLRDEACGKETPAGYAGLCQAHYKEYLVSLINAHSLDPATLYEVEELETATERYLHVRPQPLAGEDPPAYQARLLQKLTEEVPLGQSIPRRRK

[2] = target: T2, myc epitope-tagged RNF31 Q584H (human, UniProt Q96EP0-1 1-1072, Q584H); test: co-IP
T2 sequence (looked up): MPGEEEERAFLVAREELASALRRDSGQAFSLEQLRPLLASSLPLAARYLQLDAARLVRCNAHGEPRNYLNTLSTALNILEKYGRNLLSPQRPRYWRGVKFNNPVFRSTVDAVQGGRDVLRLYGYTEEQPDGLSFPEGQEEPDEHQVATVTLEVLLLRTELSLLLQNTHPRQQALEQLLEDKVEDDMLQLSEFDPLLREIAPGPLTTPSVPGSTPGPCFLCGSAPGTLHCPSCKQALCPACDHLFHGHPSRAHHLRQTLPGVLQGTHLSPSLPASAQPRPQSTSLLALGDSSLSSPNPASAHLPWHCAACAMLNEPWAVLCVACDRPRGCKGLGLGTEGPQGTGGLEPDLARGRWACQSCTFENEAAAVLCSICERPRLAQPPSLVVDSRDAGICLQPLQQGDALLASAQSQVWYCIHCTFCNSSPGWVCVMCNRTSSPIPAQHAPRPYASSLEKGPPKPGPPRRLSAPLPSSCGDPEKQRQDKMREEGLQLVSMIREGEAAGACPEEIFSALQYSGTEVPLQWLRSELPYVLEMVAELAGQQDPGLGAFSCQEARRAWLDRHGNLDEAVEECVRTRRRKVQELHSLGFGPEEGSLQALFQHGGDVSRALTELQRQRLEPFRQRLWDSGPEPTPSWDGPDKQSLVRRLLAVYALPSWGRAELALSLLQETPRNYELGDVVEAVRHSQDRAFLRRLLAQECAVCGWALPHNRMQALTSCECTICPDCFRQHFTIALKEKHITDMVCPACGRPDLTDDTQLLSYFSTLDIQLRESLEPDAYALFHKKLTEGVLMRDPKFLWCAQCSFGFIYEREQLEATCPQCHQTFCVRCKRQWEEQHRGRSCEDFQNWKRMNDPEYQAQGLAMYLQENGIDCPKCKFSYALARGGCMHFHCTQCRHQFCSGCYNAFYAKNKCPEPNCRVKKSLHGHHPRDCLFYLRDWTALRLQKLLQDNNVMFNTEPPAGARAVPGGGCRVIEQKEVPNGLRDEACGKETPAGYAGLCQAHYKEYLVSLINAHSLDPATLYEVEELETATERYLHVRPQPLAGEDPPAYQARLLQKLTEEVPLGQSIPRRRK

- fold co-immunoprecipitation relative to wild type RNF31 [1]: 2.07 fold
- fold co-immunoprecipitation relative to wild type RNF31 [2]: 1.4 fold
B1: RBCK1 (natural protein, human (endogenous in HBL1), UniProt Q9BYM8-1 1-510, looked up)
chain: MDEKTKKAEEMALSLTRAVAGGDEQVAMKCAIWLAEQRVPLSVQLKPEVSPTQDIRLWVSVEDAQMHTVTIWLTVRPDMTVASLKDMVFLDYGFPPVLQQWVIGQRLARDQETLHSHGVRQNGDSAYLYLLSARNTSLNPQELQRERQLRMLEDLGFKDLTLQPRGPLEPGPPKPGVPQEPGRGQPDAVPEPPPVGWQCPGCTFINKPTRPGCEMCCRARPEAYQVPASYQPDEEERARLAGEEEALRQYQQRKQQQQEGNYLQHVQLDQRSLVLNTEPAECPVCYSVLAPGEAVVLRECLHTFCRECLQGTIRNSQEAEVSCPFIDNTYSCSGKLLEREIKALLTPEDYQRFLDLGISIAENRSAFSYHCKTPDCKGWCFFEDDVNEFTCPVCFHVNCLLCKAIHEQMNCKEYQEDLALRAQNDVAARQTTEMLKVMLQQGEAMRCPQCQIVVQKKDGCDWIRCTVCHTEICWVTKGPRWGPGGPGDTSGGCRCRVNGIPCHPSCQNCH
